Experimental data: US20260117274A1, “ORTHOGONALLY CROSSLINKED PROTEINS, METHODS OF MAKING, AND USES THEREOF” (The Research Foundation for The State University of New York, priority 2022, published 2026)

Experiments:
HeLa cells = test: Flow cytometry uptake of AF488-labeled NSa1(+10) proteins in HeLa cells; assay type: cell-based; details: for percentage of fluorescent cells / MFI(R-1) Trial 1 / MFI(R-1) Trial 2 / MFI(R-1) Trial 3: 4 hours; for MFI(R-1) Trial 1 / MFI(R-1) Trial 2 / MFI(R-1) Trial 3: Protein 500 nM, 37°C
Method: (§1) To assess cellular uptake of the supercharged NSa1 proteins, we first removed the N-terminal His-tag after TEV cleavage to obtain two intact NSa1(+10) mutants encoding either BocK or CATK-1. We then reacted the mutants with Alexa Fluor 488-NHS modest labeling yield of 20-23% (FIG. 22). We then carried out a flow cytometry assay to quantify the uptake efficiency of the NSa1(+10) mutants. In brief, HeLa cells were treated with 100 or 500 nM of NSa1(+10) proteins at 37° C. for 4 hours. After washing cells three times with PBS containing 20 U/mL heparin to remove the surface-bound proteins, cells were collected and analyzed by flow cytometry. We observed significant monobody uptake when protein concentrations reached 500 nM. […] Since the kinetically stable protein folds show enhanced proteolytic resistance due to their rigid conformations with limited local openings, we assessed the effect of orthogonal crosslinking on proteolytic stability of the monobody. Thus, we incubated the CATK-1-crosslinked NSa1(+10) with cathepsin B ¾ an enzyme responsible for the degradation of protein cargoes in the endosomes ¾ and monitored monobody stability by mass spectrometry.
Fluorescent labeling of NSa1 and flow cytometry. After TEV-cleavage and further cation exchange chromatography, the purified NSa1 proteins were buffer exchanged into the basic buffer (100 mM Pi, 450 mM NaCl, pH 8.3), and then incubated with AF488-NHS (Lumiprobe) (2-fold molar, optimized to afford non-labeled and mono-labeled protein as major species) at 4° C. with gentle shaking in darkness overnight. Then, thorough dialysis was employed to remove excess dye and protein concentrations were determined by Nanodrop (eNSa1=28880 M^−1 cm^−1, eNSa1-plus10=27390 M^−1 cm^−1; CF280=0.11; Aprotein=A280−A493*CF280).
HeLa cells were seeded in a 48-well plate and grown in DMEM supplemented with 10% FBS and 10 μg/mL Gentamycin (Gibco) and 2 μg/mL Plasmocin at 37° C., 5% CO2 until ˜80% confluency. Cells were washed twice with pre-warmed PBS before switching to serum-free DMEM with Alexa-488 labeled protein. Cells were incubated at 37° C. for 4 hours. The cells were washed three times with PBS (including 20 U/mL heparin), trypsinized, and collected with 1.5 mL tubes. After brief centrifugation (400 g, 5 min) at room temperature, cells were collected and resuspended in PBS for flow cytometry analysis.

Cathepsin B = target: T1, Cathepsin B (Homo sapiens, UniProt P07858); test: NSa1 proteolytical stability assay (QTOF-LC/MS); assay type: in vitro ADME
T1 construct: purchased Novus Biologicals
Method: as §1
NSa1 proteolytical stability assay. In a 1.5-mL microcentrifuge tube, TEV-cleaved, purified NSa1 (1.5 μM in 50 mM phosphate, 500 mM NaCl, pH 7.0) was incubated with Cathepsin B (Novus Biologicals; 0.065 μM) at 37° C. […]

B1: NSa1(+10)-A13BocK: non-crosslinked +10 charged monobody NSa1 encoding BocK at position 13; SEQ ID NO: 50 (protein)
chain: MGSSHHHHHHSSGTENLYFQGVSSKPTKLRVVRXTPTSLKIKWDAPAKTVDYYVITYGETGRGGYAWQRFEVPGSKRTATIKGLKPGVDYTITVYAGYKGYPTYYSSPISINYRT
modifications: BocK non-natural residue at position 13; VARIANT 34 X is 1/2-carboxy-4-aryltriazole lysine or Ne-(tert-butoxycarbonyl) lysine
Q: How did the “percentage of fluorescent cells” value (HeLa cells; 500 nM) turn out when B1 was run?
A: 13.6%

Q: What about the “MFI(R-1) Trial 1” value (HeLa cells) of the same molecule?
A: 6726.24

Q: What about the “MFI(R-1) Trial 2” value (HeLa cells) of the same molecule?
A: 6507.23

Q: What about the “MFI(R-1) Trial 3” value (HeLa cells) of the same molecule?
A: 6855.84

B2: NSa1(+10)-A13CATK-1: +10 charged monobody NSa1 encoding CATK-1 at Ala-13, crosslinked to Tyr-92; SEQ ID NO: 50 (protein)
chain: B1 chain
modifications: CATK-1 at Ala13 crosslinked to Tyr92; VARIANT 34 X is 1/2-carboxy-4-aryltriazole lysine or Ne-(tert-butoxycarbonyl) lysine
Q: Which “half-life relative to non-crosslinked NSa1(+10)-A13BocK” value (Cathepsin B; Cathepsin B, 37°C) does the source give for B2 here?
A: three times longer

Q: What about the half-life (Cathepsin B; NSa1 1.5 μM with Cathepsin B 0.065 μM at 37°C) of the same molecule?
A: 2.1 h

Q: What about the “higher mean fluorescence intensity than NSa1(+10)-A13BocK treated cells” value (HeLa cells; 500 nM) of the same molecule?
A: 40%

Q: What about the “percentage of fluorescent cells” value (HeLa cells; 500 nM) of the same molecule?
A: 14.8%

Q: And the “MFI(R-1) Trial 1” value (HeLa cells)?
A: 9561.61

Q: And the “MFI(R-1) Trial 2” value (HeLa cells)?
A: 9020.17

Q: And the “MFI(R-1) Trial 3” value (HeLa cells)?
A: 9337.41
